T1: rat ICAM-1 on LPS-induced rat brain endothelial cells (SV-RBEC) (rat, UniProt Q00238 28-545)
T1 construct: whole, on cells; Endogenous protein on fixed cells
T1 sequence (looked up): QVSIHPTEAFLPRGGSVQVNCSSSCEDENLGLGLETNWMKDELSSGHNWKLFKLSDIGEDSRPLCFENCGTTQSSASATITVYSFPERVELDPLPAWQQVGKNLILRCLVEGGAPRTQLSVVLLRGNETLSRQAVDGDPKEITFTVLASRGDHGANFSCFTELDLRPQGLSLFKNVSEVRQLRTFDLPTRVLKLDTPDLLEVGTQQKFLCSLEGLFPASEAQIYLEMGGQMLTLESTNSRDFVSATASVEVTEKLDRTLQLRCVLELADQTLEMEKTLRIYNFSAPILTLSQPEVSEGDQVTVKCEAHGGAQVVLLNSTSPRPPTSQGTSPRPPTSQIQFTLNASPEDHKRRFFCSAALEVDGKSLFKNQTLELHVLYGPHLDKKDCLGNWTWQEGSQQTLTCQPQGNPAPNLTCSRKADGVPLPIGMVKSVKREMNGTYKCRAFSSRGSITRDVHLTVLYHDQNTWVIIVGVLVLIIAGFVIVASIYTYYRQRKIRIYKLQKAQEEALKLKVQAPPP


What was measured:
[1] = biological target: T2, recombinant human ICAM-1 (human, UniProt P05362 28-480); test: SPR (Biacore 3000), ICAM-1 captured on SA chip, monomeric VHH injected, 25 C
T2 construct: Bought recombinant protein; In SPR it was captured on an SA sensor chip; also called intercellular adhesion molecule 1; CD54
T2 sequence (P05362 28-480 limits assumed): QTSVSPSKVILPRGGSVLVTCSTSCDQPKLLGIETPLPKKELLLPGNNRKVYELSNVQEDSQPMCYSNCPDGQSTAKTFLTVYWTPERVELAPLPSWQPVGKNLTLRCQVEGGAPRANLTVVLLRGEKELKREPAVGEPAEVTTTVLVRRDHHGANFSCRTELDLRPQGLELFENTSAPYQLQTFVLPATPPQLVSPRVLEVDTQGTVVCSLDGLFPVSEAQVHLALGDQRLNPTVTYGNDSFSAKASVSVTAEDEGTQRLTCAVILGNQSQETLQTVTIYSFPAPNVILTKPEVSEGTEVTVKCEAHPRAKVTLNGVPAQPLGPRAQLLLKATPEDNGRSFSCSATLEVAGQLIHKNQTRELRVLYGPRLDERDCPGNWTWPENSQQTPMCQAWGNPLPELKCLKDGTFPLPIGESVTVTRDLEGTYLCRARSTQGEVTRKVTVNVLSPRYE
Experimental: Three clones (5-5, 11-4, and 34-1) obtained in Example 4 were individually passed through size exclusion columns, Superdex 75 (GE Healthcare) in 10 mM HEPES, pH 7.4, containing 150 mM NaCl, 3 mM EDTA; monomeric sdAb fractions were collected and protein concentrations were determined by measuring A₂₈₀. SPR analyses were performed with Biacore 3000 instrument (GE Healthcare). All measurements were carried out at 25° C. in 10 mM HEPES, pH 7.4, containing 150 mM NaCl, 3 mM EDTA and 0.005% surfactant P20 (GE Healthcare). Approximately 700-900 RUs of the recombinant ICAM-1 was captured on SA sensor chip (GE Healthcare) at a flow rate of 5 μl/min. Various concentration of the monomeric VHH were injected over the ICAM-1 surface, using a SA surface as a reference, at a flow rate of 40 μl/min. Surfaces were generated by washing with running buffer. Data were analysed with BIAevaluation 4.1 software.

[2] = biological target: T1, rat ICAM-1 on LPS-induced rat brain …; test: immunofluorescence with Cy5.5-labelled sdAb on fixed SV-RBEC cells with or without LPS
Experimental: Rat brain endothelial cells (SV-RBEC) were cultured on coverslips for 3 days in DMEM and 10% FBS. ICAM-1 expression was induced by adding 5 μg (1 mg/ml) of lipopolysaccharide (LPS; Sigma) overnight. Cells were then washed 3× with cold PBS, fixed with 3.7% formaldehyde for 20 min, washed again 3× in PBS at RT, and then blocked with 5% of normal goat serum/PBS for 1 h at RT. 25 μg anti-ICAM-1 IgG or 50 μg anti-ICAM-1 single domain antibodies (34-1, 11-4, 5-5) labelled with Cy5.5 (red) were incubated for 1 h at RT then washed 3× in PBS. The washed cells were incubated in 1:500 WGA-FITC/PBS for 1 min on ice, for membrane staining (green) then washed again 3× with PBS. Coverslips were then mounted in DAKO mounting medium containing 2 μg/ml of Hoechst for nuclear staining (blue).

[3] = biological target: T3, mouse ICAM-1 in vivo (vasculature and atherosclerotic plaques of ApoE KO mice) (mouse, UniProt P13597 28-537); test: in vivo near-infrared optical imaging of ApoE KO and control mice after injection of Cy5.5-labelled sdAb
T3 construct: whole, on cells; Endogenous protein in the living animal; also called ICAM-1 receptor
T3 sequence (P13597 28-537): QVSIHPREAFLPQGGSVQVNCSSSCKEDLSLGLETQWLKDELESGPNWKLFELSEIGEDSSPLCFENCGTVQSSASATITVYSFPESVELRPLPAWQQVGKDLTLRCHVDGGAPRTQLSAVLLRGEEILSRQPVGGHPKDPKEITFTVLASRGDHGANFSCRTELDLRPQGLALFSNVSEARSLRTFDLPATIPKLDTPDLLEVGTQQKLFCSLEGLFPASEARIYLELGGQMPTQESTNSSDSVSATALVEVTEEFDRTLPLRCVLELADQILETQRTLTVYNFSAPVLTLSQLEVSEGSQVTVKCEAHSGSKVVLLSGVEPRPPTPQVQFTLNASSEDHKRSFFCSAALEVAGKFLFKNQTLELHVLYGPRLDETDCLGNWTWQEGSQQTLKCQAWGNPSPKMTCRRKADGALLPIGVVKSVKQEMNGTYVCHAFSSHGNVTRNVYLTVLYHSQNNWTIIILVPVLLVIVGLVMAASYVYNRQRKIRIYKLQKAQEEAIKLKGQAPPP
Experimental: Anti-ICAM-1 antibodies were labelled with Cy5.5 succimidyl ester using methods recommended by the manufacturer (GE Healthcare). […] The presence of plaques in the aorta of atherosclerotic mice (Example 6) was visualized monthly via tail vein injection of 50 μg of anti-ICAM-1 sdAb using non-invasive in vivo optical imaging. In vivo imaging studies were performed using a small-animal time-domain eXplore Optix MX2 pre-clinical imager (Advanced Research Technologies, Montreal, QC) at 4, 24, 48, and 72 h after injection. For imaging, mice were first anesthetized with isofluorane, and then positioned on an animal stage in a chamber that allows for maintenance of gaseous anesthesia. A pre-injection scan was routinely performed to determine baseline fluorescence level. At the end of the study, animals were euthanized and perfused, organs were removed and imaged. […] The fluorescence emission at 700 nm was collected by a highly sensitive time-correlated single photon counting system and detected through a fast photomultiplier tube. The data were recorded as temporal point-spread functions (TPSF) and the images were reconstructed as fluorescence concentration maps using ART Optix Optiview analysis software 2.0 (Advanced Research Technologies, Montreal, QC).

Row | Binder | Kd [1] | koff [1] | kon [1] | binding result [2] | binding result [3]
1 | anti-ICAM sdAb clone 11-4 (VHH, Soluble His6-tagged VHH expressed in E. coli from pSJF2, purified by IMAC, monomeric by SEC; also called llama sdAb clone 11-4; anti-ICAM-1 sdAb 11-4) VHH: QVQLVESGGGLVQPGGSLRLSCAASGSISSLYVMGWYRQAPGKQRELVADITSSGSIYYVDSLKGRFTISRDNARSTVYLQMNSLEPEDTAVYYCMAHVRQDSGSEYLTYWGQGTQVTVSS | 0.9 nM | 0.002 s⁻¹ | 2e+06 M⁻¹ s⁻¹ | – | –
2 | anti-ICAM-1 sdAb clone 34-1 labelled with Cy5.5 (VHH, labelled with Cy5.5 succimidyl ester, dye/antibody ratio of two; labelled residues not stated, Cy5.5 conjugate of m3) VHH: QVKLEESGGGLVQPGGSLRLSCAASGSIFSINDMGWYRQAPGKQRELVARITRDGSAAYEDSVKGRFTISRDNAPNTVFLQMNGLKPEDTAVYYCNAEIITTQTLGRMLGEYWGQGTQVTVSS | – | – | – | binds | –
3 | anti-ICAM sdAb clone 34-1 (VHH, Soluble His6-tagged VHH expressed in E. coli from pSJF2, purified by IMAC, monomeric by SEC; also called llama sdAb clone 34-1) VHH: QVKLEESGGGLVQPGGSLRLSCAASGSIFSINDMGWYRQAPGKQRELVARITRDGSAAYEDSVKGRFTISRDNAPNTVFLQMNGLKPEDTAVYYCNAEIITTQTLGRMLGEYWGQGTQVTVSS | 10 nM | 0.002 s⁻¹ | 100000 M⁻¹ s⁻¹ | – | –

More lines, now with the values ahead:

Row | Kd [1] | koff [1] | kon [1] | binding result [2] | binding result [3] | Binder
4 | 60 nM | 0.004 s⁻¹ | 70000 M⁻¹ s⁻¹ | – | – | anti-ICAM sdAb clone 5-5 (VHH, Soluble His6-tagged VHH expressed in E. coli from pSJF2, purified by IMAC, monomeric by SEC; also called llama sdAb clone 5-5) VHH: QVKLEESGGGLVQAGDSLRLSCAASGRTVNAFRMGWYRQAPGKQRERVAVITAGGTTSYIDSVKGRFTISRDNAKNTVYLQMNSLKPEDTAVYYCAAIDYDSRGQGTQVTVSS
5 | – | – | – | binds | – | anti-ICAM-1 sdAb clone 5-5 labelled with Cy5.5 (VHH, labelled with Cy5.5 succimidyl ester, dye/antibody ratio of two; labelled residues not stated, Cy5.5 conjugate of m2) VHH: QVKLEESGGGLVQAGDSLRLSCAASGRTVNAFRMGWYRQAPGKQRERVAVITAGGTTSYIDSVKGRFTISRDNAKNTVYLQMNSLKPEDTAVYYCAAIDYDSRGQGTQVTVSS
6 | – | – | – | binds | binds | anti-ICAM-1 sdAb clone 11-4 labelled with Cy5.5 (VHH, labelled with Cy5.5 succimidyl ester, dye/antibody ratio of two; labelled residues not stated, also called anti-ICAM-1 sdAb 11-4-Cy5.5; anti-ICAM-1 11-4 sdAb-Cy5.5) VHH: QVQLVESGGGLVQPGGSLRLSCAASGSISSLYVMGWYRQAPGKQRELVADITSSGSIYYVDSLKGRFTISRDNARSTVYLQMNSLEPEDTAVYYCMAHVRQDSGSEYLTYWGQGTQVTVSS

Reference: patent publication US20130064763A1 (NATIONAL RESEARCH COUNCIL OF CANADA, published 2013)
